Experimental data: patent EP0877803B1

Columns and labels:
[1] = target: OB protein; assay: BIACORE; OB protein immobilized, conditioned medium of 293 cells expressing the receptor
[2] = target: OB protein; assay: BIACORE; OB protein immobilized, conditioned medium of CHO cells expressing the receptor

BIACORE read-out [1] | BIACORE read-out [2] | Substance
191 | 151 | recombinant soluble human OB receptor (leader + extracellular domain, Seq. ID No. 10)
172 | – | recombinant soluble human OB receptor with a C-terminal FLAG-tag (Seq. ID No. 12)
